Data: US20180155413A1 (AstraZeneca / MedImmune, published 2018)
Read-outs that look alike come from different tables or passages of the source.

Columns and labels:
Assay in all cases: cell-based or functional assay
[1] = biological target: HA of B/Malaysia/2506/2004 (victoria) (influenza B virus)
[2] = biological target: HA of B/Sichuan/379/99 (yamagata) (influenza B virus)
[3] = biological target: HA of B/Hong Kong/330/2001 (victoria) (influenza B virus)
[4] = biological target: HA of ca B/Brisbane/60/2008 (victoria) (influenza B virus)
[5] = biological target: HA of ca B/Beijing/243/97 (victoria) (influenza B virus)
[6] = biological target: HA of B/Ohio/1/2005 (victoria) (influenza B virus)
[7] = biological target: HA of B/Yamagata/16/88 (yamagata) (influenza B virus)
[8] = biological target: HA of ca B/Victoria/504/2000 (yamagata) (influenza B virus)
HA of B/Hong Kong/5/72 [9] = biological target: HA of B/Hong Kong/5/72 (influenza B virus)
[10] = biological target: HA of B/Wisconsin/1/2010 (yamagata) (influenza B virus)
[11] = biological target: HA of ca B/Ann Arbor/1/66 (influenza B virus)
[12] = biological target: HA of B/Malaysia/2506/2004 (victoria) (influenza B virus); remark: listed apart in the source
[13] = biological target: HA of B/Phuket/3073/2013 (yamagata) (influenza B virus)
[14] = biological target: HA of B/Nevada/3/2011 (victoria) (influenza B virus)
[15] = biological target: HA of B/Sichuan/379/99 (yamagata) (influenza B virus); remark: listed apart in the source
HA of B/Lee/40 [16] = biological target: T1, HA of B/Lee/40 (influenza B virus, UniProt P03460 16-584)
T1 sequence (P03460 16-584 limits assumed): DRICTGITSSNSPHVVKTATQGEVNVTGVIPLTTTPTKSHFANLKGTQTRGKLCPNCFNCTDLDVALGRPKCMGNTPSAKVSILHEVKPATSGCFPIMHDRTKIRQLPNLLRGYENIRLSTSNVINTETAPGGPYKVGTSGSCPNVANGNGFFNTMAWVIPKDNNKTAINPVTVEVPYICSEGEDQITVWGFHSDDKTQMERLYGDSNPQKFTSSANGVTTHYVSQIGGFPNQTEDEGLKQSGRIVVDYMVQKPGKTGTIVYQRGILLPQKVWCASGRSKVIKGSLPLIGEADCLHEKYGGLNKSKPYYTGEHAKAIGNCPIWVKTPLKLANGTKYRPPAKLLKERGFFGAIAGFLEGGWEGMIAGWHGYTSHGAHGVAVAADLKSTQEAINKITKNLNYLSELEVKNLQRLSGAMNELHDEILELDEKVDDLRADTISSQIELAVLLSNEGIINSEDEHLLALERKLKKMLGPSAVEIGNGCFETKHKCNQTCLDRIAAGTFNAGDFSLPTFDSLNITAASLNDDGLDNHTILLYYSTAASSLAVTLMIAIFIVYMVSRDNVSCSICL

[17] = biological target: HA of B/Arizona/8/2013 (yamagata) (influenza B virus)
[18] = biological target: HA of B/Florida/4/2006 (yamagata) (influenza B virus)
[19] = biological target: HA of B/Wisconsin/5/2013 (victoria) (influenza B virus)
[20] = biological target: HA of B/Texas/2/2013 (victoria) (influenza B virus)
[21] = biological target: HA of ca B/Georgia/02/98 (yamagata) (influenza B virus)
[22] = biological target: HA of B/New Jersey/01/2012 (victoria) (influenza B virus)
[23] = biological target: HA of B/Hong Kong/330/2001 (victoria) (influenza B virus); remark: listed apart in the source
[24] = biological target: HA of ca B/Brisbane/60/2008 (victoria) (influenza B virus); remark: listed apart in the source
[25] = biological target: HA of ca B/Beijing/243/97 (victoria) (influenza B virus); remark: listed apart in the source
[26] = biological target: HA of B/Yamanashi/166/98 (yamagata) (influenza B virus)
[27] = biological target: HA of B/Ohio/1/2005 (victoria) (influenza B virus); remark: listed apart in the source
[28] = biological target: HA of B/Yamagata/16/88 (yamagata) (influenza B virus); remark: listed apart in the source
[29] = biological target: HA of ca B/Victoria/504/2000 (yamagata) (influenza B virus); remark: listed apart in the source
HA of B/Hong Kong/5/72 [30] = biological target: HA of B/Hong Kong/5/72 (influenza B virus); remark: listed apart in the source
[31] = biological target: HA of ca B/Ann Arbor/1/66 (influenza B virus); remark: listed apart in the source
[32] = biological target: HA of ca B/Ann Arbor/2/94 (yamagata) (influenza B virus)
[33] = biological target: HA of B/Shanghai/361/02 (yamagata) (influenza B virus)
[34] = biological target: HA of B/Malaysia/2506/2004 (victoria) (influenza B virus); remark: listed apart in the source
[35] = biological target: HA of ca B/Johannesburg/5/99 (yamagata) (influenza B virus)
[36] = biological target: HA of B/Sichuan/379/99 (yamagata) (influenza B virus); remark: listed apart in the source
HA of B/Lee/40 [37] = biological target: T1, HA of B/Lee/40; remark: listed apart in the source
[38] = biological target: HA of B/Florida/4/2006 (yamagata) (influenza B virus); remark: listed apart in the source
[39] = biological target: HA of ca B/Georgia/02/98 (yamagata) (influenza B virus); remark: listed apart in the source
[40] = biological target: HA of B/Hong Kong/330/2001 (victoria) (influenza B virus); remark: listed apart in the source
[41] = biological target: HA of A/Shan dong/9/93 (H3N2) (influenza A virus)
[42] = biological target: HA of A/Hong Kong/8/68 (H3N2) (influenza A virus)
[43] = biological target: HA of A/Victoria/3/75 (H3N2) (influenza A virus)
[44] = biological target: HA of ca B/Beijing/243/97 (victoria) (influenza B virus); remark: listed apart in the source
[45] = biological target: HA of B/Ohio/1/2005 (victoria) (influenza B virus); remark: listed apart in the source
[46] = biological target: HA of ca A/Panama/2007/99 (H3N2) (influenza A virus)
[47] = biological target: HA of A/Beijing/262/95 (H1N1) (influenza A virus)
[48] = biological target: HA of A/California/07/2009 (H1N1) (influenza A virus)
[49] = biological target: HA of B/Malaysia/2506/2004 (victoria) (influenza B virus); remark: listed apart in the source
[50] = biological target: HA of B/Sichuan/379/99 (yamagata) (influenza B virus); remark: listed apart in the source
[51] = biological target: HA of B/Florida/4/2006 (yamagata) (influenza B virus); remark: listed apart in the source
[52] = biological target: HA of A/Wilson Smith N/33 (H1N1) (influenza A virus, UniProt P03454 18-565)
Sequence of HA of A/Wilson Smith N/33 (H1N1) (P03454 18-565 limits assumed): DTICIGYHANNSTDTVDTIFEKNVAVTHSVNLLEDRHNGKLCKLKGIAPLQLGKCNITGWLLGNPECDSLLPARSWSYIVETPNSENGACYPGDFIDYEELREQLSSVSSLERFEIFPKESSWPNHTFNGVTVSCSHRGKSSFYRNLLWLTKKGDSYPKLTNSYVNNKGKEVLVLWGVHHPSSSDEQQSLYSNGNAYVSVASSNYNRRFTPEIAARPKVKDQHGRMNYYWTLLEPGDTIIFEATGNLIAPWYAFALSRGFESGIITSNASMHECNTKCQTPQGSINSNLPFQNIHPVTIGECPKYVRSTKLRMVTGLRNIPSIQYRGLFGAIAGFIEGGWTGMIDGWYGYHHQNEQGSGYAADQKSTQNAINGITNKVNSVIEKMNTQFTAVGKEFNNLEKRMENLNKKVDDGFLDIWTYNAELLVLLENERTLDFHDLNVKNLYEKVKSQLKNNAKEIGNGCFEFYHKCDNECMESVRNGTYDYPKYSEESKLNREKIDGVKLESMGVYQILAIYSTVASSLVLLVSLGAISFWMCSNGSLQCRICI

B1: FBC39 IgG (antibody, V domains shown)
VH: EVQLVVSGGGLVKPGGSLRLSCAASGLSFLNAWMSWVRQAPGKGLEWVGRIKSNTDGGTTDYAAPVKGRFSISRDDSKNMLFLHMSSLRTEDTAVYYCATDGPYSDDFRSGYAARYRYFGMDVWGQGTTVTVSS
VL: DIQMTQSPSSVSASVGDRVTITCRASQDISTWLAWYQQKPGKAPKLLIYAASSLQSGVPSRFSGSGSGTDFTLTISSLQPEDFATYFCQQANSFPPTFGQGTKLEIK
ADCC: NK cell killing of infected A549 cells (LDH release), IC50 [1]: 1.45 nM | ADCC: NK cell killing of infected A549 cells (LDH release), IC50 [2]: 0.85 nM | Neutralization (IC50) [3]: 1.8 nM | Neutralization (IC50) [4]: 1.5 nM | Neutralization (IC50) [5]: 0.9 nM | Neutralization (IC50) [6]: 0.5 nM | Neutralization (IC50) [7]: 0.1 nM | Neutralization (IC50) [8]: 0.2 nM | Neutralization (IC50) (HA of B/Hong Kong/5/72 [9]): 0.4 nM | Neutralization (IC50) [10]: 0.1 nM | Neutralization (IC50) [11]: 0.6 nM | Neutralization (IC50) [12]: 1.2 nM | Neutralization (IC50) [13]: 0.2 nM | Neutralization (IC50) [14]: 1.2 nM | Neutralization (IC50) [15]: 0.3 nM | Neutralization (IC50) (HA of B/Lee/40 [16]): 0.1 nM | Neutralization (IC50) [17]: 0.1 nM | Neutralization (IC50) [18]: 0.2 nM | Neutralization (IC50) [19]: 0.5 nM | Neutralization (IC50) [20]: 0.4 nM | Neutralization (IC50) [21]: 0.1 nM | Neutralization (IC50) [22]: 0.7 nM | Hemagglutination Inhibition Titer [23]: 16 nM | Hemagglutination Inhibition Titer [24]: 20 nM | Hemagglutination Inhibition Titer [25]: 14 nM | Hemagglutination Inhibition Titer [26]: 13 nM | Hemagglutination Inhibition Titer [27]: 24 nM | Hemagglutination Inhibition Titer [28]: 11 nM | Hemagglutination Inhibition Titer [29]: 16 nM | Hemagglutination Inhibition Titer (HA of B/Hong Kong/5/72 [30]): 8 nM | Hemagglutination Inhibition Titer [31]: 6 nM | Hemagglutination Inhibition Titer [32]: 6 nM | Hemagglutination Inhibition Titer [33]: 16 nM | Hemagglutination Inhibition Titer [34]: 20 nM | Hemagglutination Inhibition Titer [35]: 18 nM | Hemagglutination Inhibition Titer [36]: 10 nM | Hemagglutination Inhibition Titer (HA of B/Lee/40 [37]): 5 nM | Hemagglutination Inhibition Titer [38]: 7 nM | Hemagglutination Inhibition Titer [39]: 16 nM | Neutralization (IC50) [40]: 1 nM | Neutralization (IC50) [41]: > 1000 nM | Neutralization (IC50) [42]: > 1000 nM | Neutralization (IC50) [43]: > 1000 nM | Neutralization (IC50) [44]: 0.4 nM | Neutralization (IC50) [45]: 0.6 nM | Neutralization (IC50) [46]: > 1000 nM | Neutralization (IC50) [47]: > 1000 nM | Neutralization (IC50) [48]: > 1000 nM | Neutralization (IC50) [49]: 1 nM | Neutralization (IC50) [50]: 0.2 nM | Neutralization (IC50) [51]: 0.4 nM | Neutralization (IC50) [52]: > 1000 nM
